This is an account of results in IntAct's records for PubMed 20562859.

B1: Gamma-aminobutyric acid receptor-associated protein (Homo sapiens), O95166 (parent)
chain: MKFVYKEEHPFEKRRSEGEKIRKKYPDRVPVIVEKAPKARIGDLDKKKYLVPSDLTVGQFYFLIRKRIHLRAEDALFFFVNNVIPPTSATMGQLYQEHHEEDFFLYIAYSDESVYGL
partner: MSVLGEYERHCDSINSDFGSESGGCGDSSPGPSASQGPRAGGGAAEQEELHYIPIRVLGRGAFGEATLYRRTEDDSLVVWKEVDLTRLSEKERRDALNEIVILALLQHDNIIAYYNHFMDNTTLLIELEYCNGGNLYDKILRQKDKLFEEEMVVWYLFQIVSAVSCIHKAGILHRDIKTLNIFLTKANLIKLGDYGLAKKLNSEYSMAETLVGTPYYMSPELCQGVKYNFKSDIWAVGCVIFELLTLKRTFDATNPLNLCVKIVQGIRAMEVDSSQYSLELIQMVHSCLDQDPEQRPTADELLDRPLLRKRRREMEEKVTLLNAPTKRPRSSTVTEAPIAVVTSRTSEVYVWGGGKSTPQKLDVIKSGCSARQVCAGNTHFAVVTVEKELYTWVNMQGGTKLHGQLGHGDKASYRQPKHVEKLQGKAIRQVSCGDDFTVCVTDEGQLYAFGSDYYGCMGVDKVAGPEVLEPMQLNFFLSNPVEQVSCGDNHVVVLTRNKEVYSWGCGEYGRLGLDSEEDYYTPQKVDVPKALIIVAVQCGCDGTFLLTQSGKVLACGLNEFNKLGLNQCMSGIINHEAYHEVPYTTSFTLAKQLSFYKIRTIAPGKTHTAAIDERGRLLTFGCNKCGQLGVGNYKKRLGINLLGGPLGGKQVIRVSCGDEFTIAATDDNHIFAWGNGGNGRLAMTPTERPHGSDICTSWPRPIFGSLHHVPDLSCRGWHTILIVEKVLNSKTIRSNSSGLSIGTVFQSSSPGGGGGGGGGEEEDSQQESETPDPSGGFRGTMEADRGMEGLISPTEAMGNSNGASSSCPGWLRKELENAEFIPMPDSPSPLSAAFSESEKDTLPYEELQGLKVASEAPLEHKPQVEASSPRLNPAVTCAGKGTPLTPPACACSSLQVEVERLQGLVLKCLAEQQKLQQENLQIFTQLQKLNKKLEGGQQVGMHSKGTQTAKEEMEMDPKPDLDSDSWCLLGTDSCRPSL
B2: Gamma-aminobutyric acid receptor-associated protein (Homo sapiens), O95166 (parent)
chain: B1 chain
partner: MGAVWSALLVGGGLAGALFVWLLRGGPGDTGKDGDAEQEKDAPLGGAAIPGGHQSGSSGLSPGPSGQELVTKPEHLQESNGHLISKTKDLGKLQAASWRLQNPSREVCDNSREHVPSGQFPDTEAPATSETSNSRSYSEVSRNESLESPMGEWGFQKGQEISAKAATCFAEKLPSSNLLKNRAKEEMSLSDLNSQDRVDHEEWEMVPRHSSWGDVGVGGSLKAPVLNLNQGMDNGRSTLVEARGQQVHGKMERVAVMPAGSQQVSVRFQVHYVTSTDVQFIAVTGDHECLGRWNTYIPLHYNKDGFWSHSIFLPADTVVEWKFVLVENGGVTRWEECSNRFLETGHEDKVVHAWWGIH
B3: Gamma-aminobutyric acid receptor-associated protein (Homo sapiens), O95166 (parent)
chain: B1 chain
partner: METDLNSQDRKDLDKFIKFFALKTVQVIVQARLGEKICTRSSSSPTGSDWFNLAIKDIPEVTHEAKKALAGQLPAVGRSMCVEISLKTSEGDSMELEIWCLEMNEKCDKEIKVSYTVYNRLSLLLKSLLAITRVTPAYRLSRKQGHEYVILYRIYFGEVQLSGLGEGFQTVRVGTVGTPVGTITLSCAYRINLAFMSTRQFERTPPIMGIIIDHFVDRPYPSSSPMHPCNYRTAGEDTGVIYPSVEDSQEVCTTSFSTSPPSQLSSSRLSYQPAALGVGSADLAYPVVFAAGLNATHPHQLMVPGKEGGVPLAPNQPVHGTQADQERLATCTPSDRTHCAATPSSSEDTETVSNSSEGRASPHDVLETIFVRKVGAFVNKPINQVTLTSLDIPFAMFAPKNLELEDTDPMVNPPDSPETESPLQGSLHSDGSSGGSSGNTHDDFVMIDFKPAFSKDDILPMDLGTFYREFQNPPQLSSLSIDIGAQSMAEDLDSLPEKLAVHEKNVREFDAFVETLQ
B4: Gamma-aminobutyric acid receptor-associated protein (Homo sapiens), O95166 (parent)
chain: B1 chain
partner: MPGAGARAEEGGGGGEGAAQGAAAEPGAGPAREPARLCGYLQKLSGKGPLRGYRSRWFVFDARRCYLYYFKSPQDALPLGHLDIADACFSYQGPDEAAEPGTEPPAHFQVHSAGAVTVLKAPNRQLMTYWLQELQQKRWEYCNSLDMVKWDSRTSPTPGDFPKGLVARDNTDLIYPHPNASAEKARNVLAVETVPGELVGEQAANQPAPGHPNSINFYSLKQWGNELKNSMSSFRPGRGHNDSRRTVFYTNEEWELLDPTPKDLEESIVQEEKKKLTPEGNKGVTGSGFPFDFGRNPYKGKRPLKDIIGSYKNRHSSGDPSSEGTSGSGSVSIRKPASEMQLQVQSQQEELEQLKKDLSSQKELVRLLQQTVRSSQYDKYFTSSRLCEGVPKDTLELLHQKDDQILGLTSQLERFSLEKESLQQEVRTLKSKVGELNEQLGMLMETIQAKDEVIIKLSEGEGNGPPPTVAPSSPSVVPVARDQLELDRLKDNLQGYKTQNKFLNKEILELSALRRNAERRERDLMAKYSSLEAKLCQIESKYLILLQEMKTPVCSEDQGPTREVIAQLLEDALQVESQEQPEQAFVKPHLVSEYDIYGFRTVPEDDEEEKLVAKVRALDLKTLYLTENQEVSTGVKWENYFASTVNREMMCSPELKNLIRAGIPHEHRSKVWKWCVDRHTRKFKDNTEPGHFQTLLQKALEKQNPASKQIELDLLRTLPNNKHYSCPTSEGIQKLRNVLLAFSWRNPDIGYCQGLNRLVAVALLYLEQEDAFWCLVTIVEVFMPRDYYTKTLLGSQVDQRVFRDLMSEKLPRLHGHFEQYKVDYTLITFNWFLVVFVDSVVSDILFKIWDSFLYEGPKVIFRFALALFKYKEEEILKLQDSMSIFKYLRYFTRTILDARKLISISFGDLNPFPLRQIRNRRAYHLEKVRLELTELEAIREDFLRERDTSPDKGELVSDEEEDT
B5: Gamma-aminobutyric acid receptor-associated protein (Homo sapiens), O95166 (parent)
chain: B1 chain
partner: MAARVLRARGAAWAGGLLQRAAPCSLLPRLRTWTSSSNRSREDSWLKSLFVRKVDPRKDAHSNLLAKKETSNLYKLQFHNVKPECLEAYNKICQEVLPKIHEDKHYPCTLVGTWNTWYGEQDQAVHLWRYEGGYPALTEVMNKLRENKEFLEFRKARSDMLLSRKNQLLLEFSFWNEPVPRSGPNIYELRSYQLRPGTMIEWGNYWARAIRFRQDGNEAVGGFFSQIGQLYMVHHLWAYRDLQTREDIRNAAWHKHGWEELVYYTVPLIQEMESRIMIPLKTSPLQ
B6: Gamma-aminobutyric acid receptor-associated protein (Homo sapiens), O95166 (parent)
chain: B1 chain
partner: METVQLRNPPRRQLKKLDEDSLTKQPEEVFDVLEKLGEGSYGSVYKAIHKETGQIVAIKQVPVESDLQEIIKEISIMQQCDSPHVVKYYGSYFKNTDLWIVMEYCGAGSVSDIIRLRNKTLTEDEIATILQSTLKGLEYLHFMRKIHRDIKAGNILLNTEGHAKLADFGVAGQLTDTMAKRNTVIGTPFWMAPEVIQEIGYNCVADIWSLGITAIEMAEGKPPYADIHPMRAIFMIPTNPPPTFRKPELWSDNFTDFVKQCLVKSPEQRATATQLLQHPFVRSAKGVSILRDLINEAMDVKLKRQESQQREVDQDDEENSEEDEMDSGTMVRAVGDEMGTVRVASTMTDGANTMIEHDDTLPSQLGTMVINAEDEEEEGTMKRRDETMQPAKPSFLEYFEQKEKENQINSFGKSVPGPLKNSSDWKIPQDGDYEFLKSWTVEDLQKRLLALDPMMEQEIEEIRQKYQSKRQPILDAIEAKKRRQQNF

One test covers variants of B1. The following applies: with nek9_human NEK9, Q8TD19.
As to Y49A;L50A, the “effect of a mutation on the interaction” value is given as “decreasing interaction”.

The variants in the next test derive from B2. Conditions: with stbd1_human STBD1, O95210.
In the case of Y49A;L50A, the “effect of a mutation on the interaction” value is reported as “decreasing interaction”.

The variants in another test derive from B3. The following applies: with atg13_human ATG13, O75143.
Consider Y49A;L50A, for which the “effect of a mutation on the interaction” value is “decreasing interaction”.

In another test the parent is B4. Conditions: with tbd2b_human TBC1D2B.
On to Y49A;L50A, for which the “effect of a mutation on the interaction” value was “decreasing interaction”.

Variants of B5 are the subject of another test. Conditions: with nips2_human NIPSNAP2, O75323.
As to Y49A;L50A, the “effect of a mutation on the interaction” value is recorded as “increasing interaction”.

Variants of B6 are the subject of a further test. The following applies: with stk4_human STK4, Q13043.
Regarding R71A, the “effect of a mutation on the interaction” value is reported as “increasing interaction”.
